# Experimental data published in the DeepSol protein solubility set.
# Test: soluble on expression in E. coli; label from the status in PepcDB or PDB records
row,Sequence,soluble on expression in E. coli
1,MAFEFKLPDIGEGIHEGEIVKWFIKPGDEVNEDDVLLEVQNDKAVVEIPSPVKGKVLEVLVEEGTVAVVGDTLIKFDAPGYENLKFKGDDHDEAPKAEATPAATAEVVNERVIAMPSVRKYARENGVDIHKVAGSGKNGRIVKADIDAFANGGQAVAATEAPAAVEATPAAAKEEAPKAQPIPAGEYPETREKMSGIRKAIAKAMVNSKHTAPHVTLMDEVDVTELVAHRKKFKAVAADKGIKLTYLPYVVKALTSALREYPMLNTSLDDASQEVVHKHYFNIGIAADTDKGLLVPVVKDTDRKSIFTISNEINDLAGKAREGRLAPAEMKGASCTITNIGSAGGQWFTPVINHPEVAILGIGRIAEKPVVKNGEIVAAPVLALSLSFDHRLIDGATAQKALNQIKRLLNDPQLLVMEA,not soluble
2,MEPPKPEYAPTAHSRYNSQYFYWLFLDLFHLEPSMKLFPSLATLTLCSLMSAPLLAAEQAPELTGCAAKRQAIMNQIEQAKAHGNSNQQAGLERALSEVTAHCTDASLKKERENKVLEAKHEVSRRQADLEKAMKKGDSEKINKRKDKLAESRKELQQALDELDKLEHHHHHH,not soluble
3,MKTIHVSVVTPDGPVYEDDVEMVSVKAKSGELGILPGHIPLVAPLEISAARLKKGGKTQYIAVSGGFLEVRPDKVTILAQAAERAEDIDVLRAKAAKERAERRLQSQQDDIDFKRAELALKRAMNRLSVAEMK,soluble
4,AVCDTPHERLTILYTKILDLLKHFPKHAAYRKYTEQITSEKLELVKLEPDVKKLENLLQGG,soluble
5,MRGSHHHHHHKHGQFTLRDMYEQFQNIMKMGPFSQILGMIPGFGTDFMSKGNEQESMARLKKLMTIMDSMNDQELDSTDGAKVFSKQPGRIQRVARGSGVSTRDVQELLTQYTKFAQMVKKMGGIKGLF,soluble
6,GSHMASMTGGQQMGRGSMVKVLTACGNGMGSSMVIKMKVENALRQLGVSDIESASCSVGEAKGLASNYDIVVASNHLIHELDGRTNGKLIGLDNLMDDNEIKTKLEEALK,soluble
7,MGSDKIHHHHHHMINPIILPLDKVRNPRDLGSYVGYNGRKIKMHRLLRTGKISNITEHDKKFLLDYGLTKIIDLRSPFECKKAPDSQIPGVEHIDLSISTEDNTKGGKKDITKVFETYRKDQYAGFNMMCDRYRSHVMKEHAQHALHSILEVLANTKDGAIIYHCSEGKDRTGIVTVLILYLLGVDMETIRQDYLYSNYMLDNYRASRDKIMQENGENLCFRANMRILGSVSDAFLDTSLIAIHKNFGSLDNYLKEIIGVTPELRDTLRELYLED,not soluble
8,MTRRGVALVARRLPSSPGRVYAVKIDEGEDVHSVLSSLAEAEDLGFAMVTGIGGMAEATVAFYSPPEATYYTVDVKPPEGRVIEVAAMTGNIVKTSQGYSVHIHVALGVSPGKSISGHLVKGVVKPFMEVFVVELVSGQGTPGTSVFDHREGFKASYKRLEAAALEHHHHHH,not soluble
9,MLKTAYQRSPKQELAKNTPFFNETDLKHSFIIDFENQEFIHHQAEPLNYLFYLIKGKAKILKTERNGRQSIVQFLTAGDLIGDLTLVQAETITKDVIALGETCCLAVPLAYAETVLKNKVLFMQQLSHYLGKKMLQRVDHFTTNQTYELSYRLAELLLVAANHEDVYKEKHTEIAEYLGVSYRHLIYTFKQFRERGFIQKQGTAYHINRLALHSFVQKMKS,not soluble
10,KSKKAVWHKLLSKQRRRAVVACFRMTPLYN,soluble
11,MGSDKIHHHHHHMTMDAATAVSDQGKQDLPAGDGATLSLKDRIARDLGQRILAGIYAQHAVLPTEAELCVIYGASRTALRDALLTLSAKGLIEARKRAGTRVRVSSEWNRLDAQVLEWMRDIEPDLDFVRGLIEARLVIEPAAAQLAAKMATSGDLAVIEAAYEAMRIAPEDDLAACLDADVRFHTAILRASRNPVFANLGNMLAAALSFSFRLTTSATANYQQTLSAHGDVLEAIRMRRVDDAHDQMKALIGIASNDLLAVARKGRHQQPVPTASADPI,not soluble
12,MSLAQEDLLAKGEYLTRAANCVACHTVPGGQPFAGGVEFKLPFGSLFSPNITPDPQTGIGAWTDDEFVSALQTGIGRDGKHYYPAFPYTSYSKMSRDDILAIKGYLDSLQPVEQAPRENHIGFPFNQRWGMVFWNLLFLNDEPFQADSQRSAEWNRGKYLVEGPGHCGECHSPRNLFQAVSSERSLAGNLIQGWNAYNISADPVHGIGAWPTDVLAGYLKDGAAPGLGLSSGPMAEVVENSLRHLTDADRQAIAVFLKDSPPRSEGVPRPQQVTLAEPGSGSALGNKLFAEACASCHRWDGTGNQSQTAMLLGLKTVNDPAASNLLGILLSGHGAADAPVNRRMPSFGNIYTDQELAALSSFMLQRFGESGAQVSVPAVAKRRTESLHEGHHHHHH,not soluble
13,MGSSHHHHHHSSGLVPRGSHMAPIVETAKETNSDSSLYLDLMIKVLAGTVYEDPAHRENFSHRDSTYREEVRNEGRDWPANAHTMIGIKRLENIRQCVEDVIGNNVPGDLVETGVWRGGACILMRGILRAHDVRDRTVWVADSFQGIPDVGEDGYAGDRKMALHRRNSVLAVSEEEVRRNFRNYDLLDEQVRFLPGWFKDTLPTAPIDTLAVLRMDGDLYESTWDTLTNLYPKVSVGGYVIVDDYMMCPPCKDAVDEYRAKFDIADELITIDRDGVYWQRTR,soluble
14,HMPSVIVVGGQWGDEGKGSIVAYLSLHDEPEIIARGGVGTNAGHSVVINGKKYAVRQIPTGFMQTKARLLIGAGVLVDPEVFFHELEQLKDFNVKDRVGIDYRCAIIEEKHKQLDRTNGYLHGKIGTTGSGCGPANADRVMRKAKQAKDVKELEPYLTDVAQEINDALDEGSLVLVEGTQGFGLSLYYGTYPYVTSKDVTASSVAADVGIGPTRVDEVIVVFKSFPTRVGAGPFPTEMPMEEADRLGLVEYGTVTGRRRRVGWFDFEMARYSARINGATMLAVTMLDKYDKEAFGVTDYDKLPRKAKEFIEEIEERVGVPVGLIKTGPELEHIIDRRDTI,soluble
15,MSLKSIAQEHDCLLIDLDGTVFCGRQPTGGAVQSLSQVRSRKLFVTNNASRSADEVAAHLCELGFTATGEDVVTSAQSAAHLLAGQLAPGARVLIVGTEALANEVAAVGLRPVRRFEDRPDAVVQGLSMTTGWSDLAEAALAIRAGALWVAANVDPTLPTERGLLPGNGSMVAALRTATGMDPRVAGKPAPALMTEAVARGDFRAALVVGDRLDTDIEGANAAGLPSLMVLTGVNSAWDAVYAEPVRRPTYIGHDLRSLHQDSKLLAVAPQPGWQIDVGGGAVTVCANGDVDDLEFIDDGLSIVRAVASAVWEARAADLHQRPLRIEAGDERARAALQRWSLMRSDHPVTSVGTQEGHHHHHH,not soluble
16,MGSDKIHHHHHHMRITIVTIFPEMVEVIKKYGVIARAVERGIVEINVENLRDYTTDRHRTVDDYQYGGGYGMVMKPEPFFRFYESYVEKYGKPYVILTSPQGRIFNYKIAEELSKKDDIVIFCGRYEGIDERVMSIVDDEISIGDYILTGGELPAMVITDAVVRLVPGVVERESVERESFHQGLLDHPVYTRPYEYKGMKVPDVLLSGDHEKVELWRRKESIKKTLAKRPDLFLAKELDEMDKLAIIELFRELMEKC,not soluble
17,GPGSMDPLCSPSAVSINGTPQTSVVNTSSTTSVVASPARPKLNRSVKFDPTIGGPLHSGDLSLDTSFVHGAGGDADAREHYGRRGRADEAATDSPLYSGDVLHEHEELLPFQLTREDVAAAFEFLDVNGSGLLTMGNLKHRLSAFYPHLTSKEYKFLVEDPSGSTGGGGTASSAARSAVAARHGGAADGCGGSTGGPTTSSLAQAASSARPSNLSFDDGGDAVHANGALSGEGVASGVGGSNATSARAGLDVDQLWDLINSFQQLQRTFGAAQAGQAEGQNAQNTRSAFNSSFDAYLVGTHGTQGIRSADIGFDAVGEAFRIYDPHNTHYVEEEVLSCIMARVGFGELTEEELAVLVSTADFDGDGRISLEDFRRLVSMKGRFEK,soluble
18,MRFNHFSIVDKNFDEQLAELDQLGFRWSVFWDEKKILKDFLIQSPSDMTALQATAELDVIEFLKSSIELDWEIFWNIALQLLDFVPNFDFEIGKAFEYAKNSNLPQIEAEMTTENIISAFYYLLCTRRKTGMILVEHWVSEGLLPLDNHYHFFNDKSLATFDSSLLEREVLWVESPVDSEQRGENDLIKIQIIRPKSTEKLPVVMTASPYHLGINDKANDLALHDMNVELEEKTSHEIHVEQKLPQKLSAKAKELPIVDKAPYRFTHGWTYSLNDYFLTRGFASIYVAGVGTRSSDGFQTSGDYQQIYSMTAVIDWLNGRARAYTSRKKTHEIKASWANGKVAMTGKSYLGTMAYGAATTGVEGLELILAEAGISSWYNYYRENGLVRSPGGFPGEDLDVLAALTYSRNLDGADFLKGNAEYEKRLAEMTAALDRKSGDYNQFWHDRNYLINTDKVKADVLIVHGLQDWNVTPEQAYNFWKALPEGHAKHAFLHRGAHIYMNSWQSIDFSETINAYFVAKLLDRDLNLNLPPVILQENSKDQVWTMMNDFGANTQIKLPLGKTAVSFAQFDNNYDDETFKKYSKDFNVFKKDLFENKANEAVIDLELPSMLTINGPVELELRLKLNDTKGFLSAQILDFGQKKRLEDKVRVKDFKVLDRGRNFMLDDLVELPLVESPYQLVTKGFTNLQNQSLLTVSDLKADEWFTIKFELQPTIYHLEKADKLRVILYSTDFEHTVRDNRKVTYEIDLSQSKLIIPIESVKN,soluble
19,SEQTEVMKPETLEDLIKTLHQIFQSDSINVEEVQNLMESYQSNPQDWMKFAKFDQYRYTRNLVDEGNGKFNLMILCWGEGHGSSIHDHTDSHCFLKLLQGQLKETLFDWPDRKLQSGMKPRGQSVLQENQCAYINDSLGLHRVENVSHTEPAVSLHLYSPPFQSCRTFDQRTGHHNTVKMTFWSKYGERTPYELSVSQENN,soluble
20,MRDPEFWHNKWAANQIGFHLEDVNPLLIRFWSDLAPKRSEKVLVPLCGKSEDLIWLANQHDSVQGVELSQIAVRSFFAEHFYTPTVTRLNAQHELYQFDELTLFTGDFFTAPVESVDLVYDRAALVALPEEMRAEYAQRVLQLLKPGGRILLVSMDYVQTELSGPPFSVPEAEIRTLFMGCEVRRVYQDTSIDPHLNKRTQAGLSRFAEEVWVIEKSE,not soluble
21,MNRTLYTVLFHLGLPLVALRLWLRARKAPAYRQRIGERFASGLPAMQRDGIWVHAVSVGESIAAAPMIRALLVQYPQLPITVTCMTPTGSERIKALFANEPRIQYCYLPYDLPWAAGRFLDHVQPQLGIIMETELWPNHIHQCAKRAIPVVLANARLSERSARGYARFARLTQPMLAEMAWFAVQTEVEAQRFRDLGARAECVVVTGSIKFDLNIDPQLLERAAQLREQWQATQRPVWIAASTHAGEDESVLSAHRTLLASHPDALLILVPRHPERFDSVHALCQQQGFKTVRRSSAQAVTPDVAVLMGDTMGELLFLYALVDIAFVGGSLVPNGGHNLLEPAALAKPVLSGPHLFNFLEIAAMLRTAGALQEVSDATALATAVQRLIDQPQQARSMADAGLAVMKANQGALQRLLDGIERLMAKRRVAEDAERPERHAHAERRHDSAAALEHHHHHH,not soluble
22,MTSSDQSPSHDVFVYGSFQEPAVVNLILECAPVMVSAQLHGYHLYRLKGRLHPCISPSDNGLINGKILTGLTDSQLESLDMIEGTEYVRKTVEVVLTDTLEKKQVETIVWANKDDPNMYGEWDFEEWKRLHMEKFIEAATKFMEWKKNPNGRSREEFEKFVQDDSSPASA,soluble
23,MDRNEVRHAWDSVSETYAERRDPTGSDAALLEDLLERLPEAPTVLDVGCGDGARTLANLPPRSVGLDFSRAGLDLAAETVPDSRLVQGDMGSLPVTTDSVDAITAYHAVFHVQRDQHPEVYREFARVLRPGGTVLMTLPSGQFETVRRGWMGGSMFFSAPGRRATLDQLADAGFTETETVTATDPLGSDSEFVFATLADALEHHHHHH,soluble
